Data as given in the nanobody polyreactivity screen of Harvey et al. (2022).

assay: yeast display, Sf9 membrane polyspecificity reagent, FACS + sequencing; frameworks hold sequencing errors
Procedure, shortened: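 Genes from sorted yeast were amplified by colony PCR, read by MiSeq 2 × 250 sequencing and filtered on CDR length. These cells carried a synthetic nanobody library in Saccharomyces cerevisiae BJ5465 and were sorted by FACS into low and high (top ~1%) gates on anti-HA and streptavidin fluorescence. Polyreactivity is labelled according to the gate of origin.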

Sequence	polyreactivity (PSR sort gate)
QVQLVESGGGLVQAGGSLRLSCADSGRTFTKYAMGRYRQAPGKERELVAAISRSGGSTYYADSVKGRFTISRVNAKNTVYLQMNSLKPEDTAVYYCAARRYRASSRGYGYWGQGTQVTVSS	high polyreactivity
QVQLVESGGGLVQAGGSLRLSCADSGRTIDVYAMGWYRHAPGKEREFVAAISTGASTCYADSVKGRFTISRDNAKNTVYLQMNSLKTEDTGVYYCAKRVTRWYGYWGQGTQVTVSA	high polyreactivity
QVQLVESGGGLVQAGGSLRLSCADSGRTLSVYAMGWYRQAPGKESELVAAITWRGGSTYYADSVKGRFTISRDNAKNTVYLQMNSLKPEDTAVYYCAAEDYTYNGGGFEYWGQGTQVTVAS	low polyreactivity
QVQLVESGGGLVQAGGSLRLSCADSGRTLVRYTMRGYRQAPGKERDLVASISQRGGTTYYADSVKGRFTISRDNAKNTVYLQMNSLKPEDTAVYYCAAGIHGRYARDWYEYWGQGTQVTVSS	low polyreactivity
QVQLVESGGGLVQAGGSLRLSCADSGSIFAYYAMGWYRQAPGKERELVADITSSGGITYYADSVKGRFTISRDNAKNTVYLQMNSLKPEDTAVYYCNADSLAIVGGSYPYDYWGQGTQVTVSS	low polyreactivity
QVQLVESGGGLVQAGGSLRLSCADSGSIFDDYTMGWYRQAPGKERELVAVITTGGTTYYADSVKGRFTISRDNAKNTVYLQMNSLKPEDTAVYYCAAKEANRYRRYYWGQGTQVTVSS	high polyreactivity
QVQLVESGGGLVQAGGSLRLSCADSGSIFDFNALGWYRQAPRKERELVAAITWSGGSTYYSDSVKGRFTISRDYAKNTVYLQMNSLKPEDTAVYYCAADSLYDDFYYWGQGTQVTVSS	low polyreactivity
QVQLVESGGGLVQAGGSLRLSCADSGSIFGVNVMGWYRQAPGKDRELVAAITSIGGRTYYADSVKGRFTISRDNAKNTVYLQMNSLKPEDTAVYYCNADYTGAEYDYWGQGTQVTVSS	low polyreactivity
QVQLVESGGGLVQAGGSLRLSCADSGSIFLWNTMGWYRQAPGKERELVAAINFSGTRTYYADSVKGRFTISRDNAKNTVYLQMNSLKPEDTAVYYCNARTSRRLDYDYWGQGTQVTVSS	high polyreactivity
QVQLVESGGGLVQAGGSLRLSCADSGSIFSPYAMGWYRQAPGKERELVAAITNSGGRTYYADSVKGRFTISRDNAKNTVYLQMNSLKPEDTAVYYCNADYGKHHPDYYYWGQGTQVTVSS	low polyreactivity
QVQLVESGGGLVQAGGSLRLSCADSGSIFVKNAMGWYRQAPGKERELVATISTGGRTYYADSVKGRFTISLDNAKNTVYLQMNSLKPEDTAVYYCATDFYPRYLLRTYRPYYYWGQGTQVTVSS	low polyreactivity
QVQLVESGGGLVQAGGSLRLSCADSGSIFWLYAMGWYRQAPGKERELVAAIDSGDSTKYADSVKGRFTISRDNAKNTVYLQMNSLKPEDTAVYYCNASRRYHVRAPYDYWGQGTQVTVSS	low polyreactivity
QVQLVESGGGLVQAGGSLRLSCADSGSIFYGYTMGWYRQAPGKERELVAAISSSGGSTYYADSVKGRFTISRDNAKNTVYLQMNSLKPEDTAVYYCAAYVPYSPDHVEFNYWGQGTQVTVSS	high polyreactivity
QVQLVESGGGLVQAGGSLRLSCADSGSIFYPYAKGLYRQDPGKERELVATITSSGSSTYYADSVKGRFTISRDNAKNTVYLQMNSLKPEDTAVYYCAAYRVILYYLYDYWGQGTQVTLSS	low polyreactivity
QVQLVESGGGLVQAGGSLRLSCADSGSISRNAMGWYRQAPGKERELVAGISQSGGRTYYADSVKGRFTISRDNAKKTVYLQMNSLKPEDSAVYYCNADPRRGPGSVSSVRNNYWGQGTQVTVSS	high polyreactivity
QVQLVESGGGLVQAGGSLRLSCADSGSTFDSYAMGWSRQAPGKEMDMVAGITWGGGSTYYADSVKGRLTISRDNAKNTVYLQLNSLKPEDTAVYDCAAEEVYYWYTYYYWGEGTQVTVSS	high polyreactivity
QVQLVESGGGLVQAGGSLRLSCADSGSTFDSYDMGWYRQAPGKERELVAGISYSSDRTYYADSVKGRFTISRDNAKNTVYLQMNSLKPEDTAVYYCAKDHTGTVQYPLDYWGQGTQVTVSS	low polyreactivity
QVQLVESGGGLVQAGGSLRLSCADSGSTFHPYAMGWYRKAPGKERELVAAISWTGGRTYYADSVKGRFTISRDNSKNTVYLQMNSLKPEDTAVYYCAARTYGKVGYWGQGTQVTVSS	high polyreactivity
QVQLVESGGGLVQAGGSLRLSCADSGSTFRANAMGWYRQAPGKERELVAAISQSGGITYYADSVKGRFTISRDNAKNSVYLQMNSLKPEDTAVYYCAAEYWFYYVDSFYYWGQGTQVTVSS	high polyreactivity
QVQLVESGGGLVQAGGSLRLSCADSGSTFVSYAMGWYRQAPGKERELVAVAISWSGGNTYYADSVKGRFTISRDNAKNTVYLQMNSLKPEDTAVYYCAAYGTTGVYRGPGYDYWGQGTQVTVSS	low polyreactivity

Sequence	polyreactivity (PSR sort gate)
QVQLVESGGGLVQAGGSLRLSCADSGSTFYGNVMGWYRQAPGKERELVAAITRGGTTNYADSVKGRFTISRDNAKNTVYLQMNSLKPEDTAVYYCAKASYWVQASNDYWGQGTQVTVSS	low polyreactivity
QVQLVESGGGLVQAGGSLRLSCADSGSTFYTNAMGWYRQAPGKERELVAAINRSGGRTYYADSVKGRFTISRDNAKNTVYLQMNSLKPEDPAVYYCAARYPVRFSTDTARDYYWGQGTQVTVSS	low polyreactivity
QVQLVESGGGLVQAGGSLRLSCADSGTIFALYAMGWYRQAPGKEREFVAAIRRGTSTKYADSVKGRFTISRDNAKNTVYLQMNSLKPEDTAVYYCNARYYYSSSISRWYDYWGQGTQVTVSS	high polyreactivity
QVQLVESGGGLVQAGGSLRLSCADSGYIYPYYAMRWYRQAPGKERELVATITSRGGSTYYADSVKRRFTISRDIAKNTVYLQMNSLKPEDTAVYYCAIEYRYYRRRYDYCGQGTQVTVSS	high polyreactivity
QVQLVESGGGLVQAGGSLRLSCADTGRTFSRNSMGWYIQAPGKERELVATITRGTITNYADSVKGRFTISRDNAMNTVYLQINSRKPEDTAVYYCNARTLFFPARNRCELSDYWGQGTQVTVSS	low polyreactivity
QVQLVESGGGLVQAGGSLRLSCADYGFIMLYYALVCYRQAPGKERELVAAISWTGGRTYYADSVKGRFTISRDNAKNTVYLQMNSLKPEDTAVYFCNTVKLFGRKYGYWGQGTQVTVSS	low polyreactivity
QVQLVESGGGLVQAGGSLRLSCAGSGFTFIRYAMGWYRQAPGKERELVATITRRTGSTYYADSVKGRFTISRDNAKNTVYLQMYSLKPEDTAVYDCAGELYPSWSHTVFHGYNYWGQGTQVTVSS	high polyreactivity
QVQLVESGGGLVQAGGSLRLSCAGSGIIFSRYAMGWYRQAPGKERELVAAISSSGGTTYYADSVKGRFTISRDNAKNTVYLQMNSQKPEDTAVYYCYAPAFYKYKSFYAHSGYDYWGQGTQVTVSS	high polyreactivity
QVQLVESGGGLVQAGGSLRLSCAGSGRIFARNAMGWYRQAPGKARELVAGITWSGSSTYYADSVKGRFTISRDNAKNTVYLQMNRLKPEDTAVYYCAVDYYVGSLRIHHDYWGQGTQVTVSS	low polyreactivity
QVQLVESGGGLVQAGGSLRLSCAGSGRIFLDKAMGWYRQAPGKERELVAAINGSGGSTYYADSVKGRFTISRDNAKNTVYLQMNSLKPKIPRSITATKRYIQSLWGFDYWGQGTQVTVSS	low polyreactivity
QVQLVESGGGLVQAGGSLRLSCAGSGRTFSTYAMGSDRQAPGKERELVAAITRRGGSTYYADSVKGRFTISRDNAKNTVYLQMNSLKPEDTAVYYCARENPGDSYYDYWGQGTQVTVSS	low polyreactivity
QVQLVESGGGLVQAGGSLRLSCAGSGSIFGLYAMGWYRQEPGKERELVAAINQSGGSTSYADSVKGRFTISRDNAKNTVYFQMNSLKPEDTAVYYCNRVRLNTEGFDYWGQGTQVTVSS	low polyreactivity
QVQLVESGGGLVQAGGSLRLSCAPSGFIFGLYVMGWYRQAPGKERELVAAITTSVGSTYYADSVKGRFTISRDNAKNTVYLQMNSLKPEDTAVYYCAKTSGTIDYDYWGQGTQVTVSS	low polyreactivity
QVQLVESGGGLVQAGGSLRLSCAPSGFIFTPYTMGGYRQAPGKERELVAAITDGSSTYYADSVKGRFTISRDNAKNTVYVQMNSLKPEDTAVYYCNADGKPPYISWLYDYWGQGTQVTVST	low polyreactivity
QVQLVESGGGLVQAGGSLRLSCAPSGFIFVKYVMGWYRQAPGKERELVATITGSTGGTYYADSVKGRFTISRDNAKNTVYLQMNSLKPEDTAVYYCNKDYYYNPGNVASGYDYWGQGTQVTVSS	low polyreactivity
QVQLVESGGGLVQAGGSLRLSCAPSGFIFYANDMGWYRQAPGKERELVARITNSGGSTYYADSVKGRFTISRDNAKNTVYLQMNSLKPEDTAVYYCAAWRRFNYSRRYYYWGQGTQVTLSS	high polyreactivity
QVQLVESGGGLVQAGGSLRLSCAPSGFTFSPYTMGWYRQAPGKETELVATIRYDGTSTYYADSVKGRFTISRDNAKNTVYLQMNSLKPEDTAVYYCNADGSAQDIAELDYWGQGTQVTVSS	low polyreactivity
QVQLVESGGGLVQAGGSLRLSCAPSGFTFYTYAMGWYRQAPGKERELVAVISRSGGRTNYADSVKGRFTISRDNAKNTVYLQMNSLKPEDTAVYYCNRYDRQRSWSVGYDYWGQGTQVTVSS	high polyreactivity
QVQLVESGGGLVQAGGSLRLSCAPSGGTIAPYAMGWYRQASGKESELDATISNSGTSTNYADSVKGRFTISRDNAKNTVYLQMNSLKPEDTAVYYCAKRYHQYRWRGWLWGFDYWGQGTQVTVLS	high polyreactivity
QVQLVESGGGLVQAGGSLRLSCAPSGIIFPTYAMGWYRQAPGKERELVAAIRWNGGSTYYADSVKGRFTISRDNAKNTVFLQMTILKPEDTAVYYCAAGYRGSYKYYYWGQGTQVTVSS	high polyreactivity
